Assay results: patent US20140303084
Numbering of substitutions follows the chain as printed.

Experiments:
ALTCLASYCWLF = system: T1, ALTCLASYCWLF
T1 sequence: ALTCLASYCWLF

[1] = system: T2, C(N-ethylmaleimide)-PEG4-LVPR-PEG4-rRAPGKLTCLASYCWLFWTGIA
T2 sequence: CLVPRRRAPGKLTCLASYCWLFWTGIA

[2] = system: T3, CRRAPGKLQCLASYCWLFWTGIAGGSGGC
T3 sequence: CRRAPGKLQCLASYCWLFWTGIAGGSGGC

FGQPSRLTCLASYCWLFGNLVT = system: T4, FGQPSRLTCLASYCWLFGNLVT
T4 sequence: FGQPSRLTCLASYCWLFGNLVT

HMQWGKLPCLASYCWLFWYGIG = system: T5, HMQWGKLPCLASYCWLFWYGIG
T5 sequence: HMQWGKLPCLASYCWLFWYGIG

KATCLASYCWLF = system: T6, KATCLASYCWLF
T6 sequence: KATCLASYCWLF

KKTCVASFCQMI = system: T7, KKTCVASFCQMI
T7 sequence: KKTCVASFCQMI

KLACLASYCWLF = system: T8, KLACLASYCWLF
T8 sequence: KLACLASYCWLF

[3] = system: T9, KLT-Orn-LASY-Glu-WLF-CONH2
T9 sequence: KLTXLASYEWLF

KLTCLASYCWL-MePhe = system: T10, KLTCLASYCWL-MePhe
T10 sequence: KLTCLASYCWLF

[4] = system: T11, KLTCLASYCWLF-(PEG)4-CONH2
T11 sequence: KLTCLASYCWLF

KLTCLASYCWLFK = system: T12, KLTCLASYCWLFK
T12 sequence: KLTCLASYCWLFK

KLTCLASYCWL = system: T13, KLTCLASYCWL
T13 sequence: KLTCLASYCWL

KLTCLASYCwLF [5] = system: T14, KLTCLASYCwLF
T14 sequence: KLTCLASYCWLF

KLTCLATYCWLF = system: T15, KLTCLATYCWLF
T15 sequence: KLTCLATYCWLF

KLTCLAsYCWLF [6] = system: T16, KLTCLAsYCWLF
T16 sequence: KLTCLASYCWLF

KRYVYRQMCLVSACWLLQLGYA = system: T17, KRYVYRQMCLVSACWLLQLGYA
T17 sequence: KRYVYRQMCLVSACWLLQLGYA

[7] = system: T18, PRIRTVGPGSRRASGKLTCLASYCWLFWTGIA
T18 sequence: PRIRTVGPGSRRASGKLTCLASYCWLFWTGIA

[8] = system: T19, PRIRTVGPGSRSASGKLTCLASYCWLFFTGIA
T19 sequence: T18 sequence with R12S, W28F

[9] = system: T20, PRIRTVGPGSRSASGKLTCSASYCWLFWTGIA
T20 sequence: T18 sequence with R12S, L20S

[10] = system: T21, Pra-PEG4-PRIrTVGPGSrSASGKSTCLASYCWLFWTGIA
T21 sequence: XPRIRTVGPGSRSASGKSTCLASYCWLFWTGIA

RGRSAKLRCLASYCWLFFTVIL = system: T22, RGRSAKLRCLASYCWLFFTVIL
T22 sequence: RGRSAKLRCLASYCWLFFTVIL

RLTCLASYCWLF = system: T23, RLTCLASYCWLF
T23 sequence: RLTCLASYCWLF

RRAAGKLQCLASYCWLFWTGIA = system: T24, RRAAGKLQCLASYCWLFWTGIA
T24 sequence: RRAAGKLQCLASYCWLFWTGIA

[11] = system: T25, RRAPGCLTALASYAWLCWTGIA-CONH2
T25 sequence: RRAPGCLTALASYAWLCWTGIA

[12] = system: T26, RRAPGKCTALASYAWCFWTGIA-CONH2
T26 sequence: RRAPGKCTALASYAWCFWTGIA

[13] = system: T27, RRAPGKCTALASYCWLFWTGIA-CONH2
T27 sequence: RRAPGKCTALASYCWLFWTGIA

RRAPGKLQCLASYCWLFWTGLA = system: T28, RRAPGKLQCLASYCWLFWTGLA
T28 sequence: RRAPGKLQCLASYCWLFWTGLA

[14] = system: T29, RRAPGKLT-Asp-LASY-Dab-WLFWTGIA-CONH2
T29 sequence: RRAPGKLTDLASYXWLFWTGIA

[15] = system: T30, RRAPGKLT-Asp-LASY-Dap-WLFWTGIA-CONH2
T30 sequence: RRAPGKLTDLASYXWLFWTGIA

[16] = system: T31, RRAPGKLT-Asp-LASY-Orn-WLFWTGIA-COOH
T31 sequence: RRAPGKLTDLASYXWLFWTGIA

[17] = system: T32, RRAPGKLT-Dap-LASY-Asp-WLFWTGIA-COOH
T32 sequence: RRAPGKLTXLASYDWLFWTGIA

[18] = system: T33, RRAPGKLTCLASYCWLF ATGVT FPQIWAIPSP
T33 sequence: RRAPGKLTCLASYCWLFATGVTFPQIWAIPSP

[19] = system: T34, RRAPGKLTCLASYCWLF WAGFA ASTLAPAHHQ
T34 sequence: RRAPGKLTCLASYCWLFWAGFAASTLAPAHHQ

[20] = system: T35, RRAPGKLTCLASYCWLF WTGFA FRVGLASSLY
T35 sequence: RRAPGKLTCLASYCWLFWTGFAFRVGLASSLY

[21] = system: T36, RRAPGKLTCLASYCWLF WTGLA STLYKTYTRE
T36 sequence: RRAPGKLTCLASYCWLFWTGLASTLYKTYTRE

RRAPGKLTCLASYCwLFWTGIA = system: T37, RRAPGKLTCLASYCwLFWTGIA
T37 sequence: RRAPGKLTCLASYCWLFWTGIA

RRAPKKLQCLASYCWLFWTGIA = system: T38, RRAPKKLQCLASYCWLFWTGIA
T38 sequence: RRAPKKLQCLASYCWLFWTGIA

RRRKLTCLASYCWLFRRR = system: T39, RRRKLTCLASYCWLFRRR
T39 sequence: RRRKLTCLASYCWLFRRR

RSQGRKLTCLASYCWLFLVVHR = system: T40, RSQGRKLTCLASYCWLFLVVHR
T40 sequence: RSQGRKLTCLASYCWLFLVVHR

RYQRARLTCLASYCGLLFSMSA = system: T41, RYQRARLTCLASYCGLLFSMSA
T41 sequence: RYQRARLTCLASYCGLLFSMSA

[22] = system: T42, SKQGRPASPDrRAAGKLTCLASYCWLFWTGIA
T42 sequence: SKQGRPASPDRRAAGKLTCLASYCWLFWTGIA

[23] = system: T43, SKQGRPISPDRRAAGKLTCLASYCWLFWTGIA-PEG2-K(PEG2-Biotin)
T43 sequence: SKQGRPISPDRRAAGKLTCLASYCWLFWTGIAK

[24] = system: T44, SKQGRPISPDrRAAGKLTCLASYCWLFWTG
T44 sequence: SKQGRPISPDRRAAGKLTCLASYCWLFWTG

[25] = system: T45, SKQGRPISSDrRAAGKLTCLASYCWLFWTGIA
T45 sequence: T42 sequence with A7I, P9S

[26] = system: T46, TLWPWGGQGG RNAPG KLTCLASYCWLFWTGIA
T46 sequence: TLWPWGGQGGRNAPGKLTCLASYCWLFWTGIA

[27] = system: T47, TSGPFGFGGS SRAQG KLTCLASYCWLFWTGIA
T47 sequence: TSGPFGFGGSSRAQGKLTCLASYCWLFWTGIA

compound 23 = system: T48, compound 23
T48 sequence: T18 sequence with R12S

[28] = system: T49, rrapgkltclasycwlfwtgia (inverso)
T49 sequence: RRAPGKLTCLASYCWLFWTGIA

[29] = system: T50, ═N-O-(CH2)3-O-N═(COCH2CH2CO-KLTCLASYCWLF)2
T50 sequence: KLTCLASYCWLF

human Factor IXa
> 0.5: Vmax, FXa generation assay (RYQRARLTCLASYCGLLFSMSA)
> 3: Vmax, FXa generation assay (KLTCLASYCWLFK) | Vmax, FXa generation assay (KLTCLASYCWL) | Vmax, FXa generation assay (KLTCLASYCwLF [5]) | Vmax, FXa generation assay [7] | Vmax, FXa generation assay [8] | Vmax, FXa generation assay [18] | Vmax, FXa generation assay [20] | Vmax, FXa generation assay [25] | Vmax, FXa generation assay with hFIXa (compound 23) | Vmax, FXa generation assay [29]
(++): Vmax, FXa generation assay; (++) means 1-2 (ALTCLASYCWLF) | Vmax, FXa generation assay; (++) means 1-2 [1] | Vmax, FXa generation assay; (++) means 1-2 (FGQPSRLTCLASYCWLFGNLVT) | Vmax, FXa generation assay; (++) means 1-2 [3] | Vmax, FXa generation assay; (++) means 1-2 (KLTCLASYCWL-MePhe) | Vmax, FXa generation assay; (++) means 1-2 [4] | Vmax, FXa generation assay; (++) means 1-2 (KLTCLATYCWLF) | Vmax, FXa generation assay; (++) means 1-2 (KRYVYRQMCLVSACWLLQLGYA) | Vmax, FXa generation assay; (++) means 1-2 [9] | Vmax, FXa generation assay; (++) means 1-2 [10] | Vmax, FXa generation assay; (++) means 1-2 [11] | Vmax, FXa generation assay; (++) means 1-2 [12] | Vmax, FXa generation assay; (++) means 1-2 [14] | Vmax, FXa generation assay; (++) means 1-2 [16] | Vmax, FXa generation assay; (++) means 1-2 [21] | Vmax, FXa generation assay; (++) means 1-2 (RRAPKKLQCLASYCWLFWTGIA) | Vmax, FXa generation assay; (++) means 1-2 (RRRKLTCLASYCWLFRRR) | Vmax, FXa generation assay; (++) means 1-2 (RSQGRKLTCLASYCWLFLVVHR) | Vmax, FXa generation assay; (++) means 1-2 [23] | Vmax, FXa generation assay; (++) means 1-2 [27]
> 2: Vmax, FXa generation assay [2] | Vmax, FXa generation assay (HMQWGKLPCLASYCWLFWYGIG) | Vmax, FXa generation assay (KATCLASYCWLF) | Vmax, FXa generation assay (KLACLASYCWLF) | Vmax, FXa generation assay (KLTCLAsYCWLF [6]) | Vmax, FXa generation assay (RGRSAKLRCLASYCWLFFTVIL) | Vmax, FXa generation assay (RLTCLASYCWLF) | Vmax, FXa generation assay (RRAAGKLQCLASYCWLFWTGIA) | Vmax, FXa generation assay [13] | Vmax, FXa generation assay (RRAPGKLQCLASYCWLFWTGLA) | Vmax, FXa generation assay [15] | Vmax, FXa generation assay [19] | Vmax, FXa generation assay (RRAPGKLTCLASYCwLFWTGIA) | Vmax, FXa generation assay [22] | Vmax, FXa generation assay [24] | Vmax, FXa generation assay [26] | Vmax, FXa generation assay [28]
> 4: Vmax, FXa generation assay (KKTCVASFCQMI)
> 0.8: Vmax, FXa generation assay [17]
